According to patent publication US20160237160A1 (Bayer, published 2016):

T1: TPP-1984 (hTNFRSF12Aaa28-68-CT-His) (human)
T1 construct: monomeric ectodomain with HIS6 tag; also called TWEAKR(28-68)-HIS; C-terminally truncated TWEAKR ectodomain
T1 chain: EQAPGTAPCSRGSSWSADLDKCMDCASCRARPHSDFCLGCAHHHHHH


Columns and labels:
[1] = molecular target: T2, TWEAKR (TNFRSF12A, FN14), human, on tumor cell lines (human, UniProt Q9NP84 28-129); assay: FACS, WiDr cells, 10 ug/ml
T2 construct: endogenous receptor on human cancer cell lines; also called TWEAK receptor; CD266
Procedure: (§1) To determine the binding characteristics of the anti-TWEAKR antibodies on mouse and human cancer cell lines, binding was tested by flow cytometry to a panel of cell lines. […] Cells were suspended at approximately 10⁵ cells/well in FACS buffer (PBS without Ca/Mg, containing 3% FCS, Biochrom). Cells were centrifuged (250 g, 5 min, 4° C.) and supernatant discarded. Cells were resuspended in dilutions of the antibodies of interest (10 μg/ml in 80 μl if not indicated otherwise) in FACS buffer, and incubated on ice for 1 h. […] After incubation for 1 h on ice cells were again washed with cold FACS buffer, resuspended in 1000 FACS buffer and analyzed by flow cytometry using a FACS-Array (BD Biosciences). Results are calculated as Geo Mean of fluorescence detected by the antibody of interest subtracted by background fluorescence as measured by detection with the secondary antibody alone. Values are scored according to the following system: Geo Mean−Geo Mean of secondary antibody alone >10: +, >100: ++, >1000: +++, 10000: ++++, close to category border in ( ).

[2] = molecular target: T3, TPP-1779 (RAT-TNFRSF12Aaa28-80-hIgG1-Fc) (rat); assay: SPR, TWEAKR-Fc immobilized, IgG injected, bivalent analyte model (avidity mode);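 further: kd derived as the ratio of fitted dissociation to association rate constants, with sensorgrams corrected against a reference flow cell and a buffer blank before fitting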
T3 construct: bivalent antigen; also called rat TWEAKR Fc
Procedure: (§2) Sensorgrams were generated after in-line reference cell correction followed by buffer sample subtraction. The dissociation equilibrium constant (KD) was calculated based on the ratio of association (kₒₙ₁) and dissociation rated (koff1) constants, obtained by fitting sensorgrams with a bivalent analyte model using Biavaluation Software (version 4.0).

[3] = molecular target: T4, TPP-601 (MURINE-TNFRSF12Aaa28-80-hIgG1-Fc) (murine); assay: as above
T4 construct: dimeric; also called murine TWEAKR Fc
Procedure: as §2

[4] = molecular target: T5, TPP-1778 (PIG-TNFRSF12Aaa28-80-hIgG1-Fc) (pig); assay: as above
T5 construct: bivalent antigen; also called pig TWEAKR Fc
Procedure: as §2

[5] = molecular target: T6, TPP-1846 (MAC-TNFRSF12Aaa28-80-hIgG1-Fc) (macaca fascicularis); assay: as above
T6 construct: bivalent antigen; also called mac fasc TWEAKR Fc
Procedure: as §2

[6] = molecular target: T7, TPP-599 (HUMAN-TNFRSF12Aaa28-80-hIgG1-Fc) (human); assay: as above
T7 construct: dimeric; also called human TWEAKR Fc; TWEAKR-Fc
Procedure: as §2

[7] = molecular target: T8, TPP-1777 (DOG-TNFRSF12Aaa28-80-hIgG1-Fc) (dog); assay: as above
T8 construct: bivalent antigen; also called dog TWEAKR Fc
Procedure: as §2

[8] = molecular target: T2, TWEAKR (TNFRSF12A, FN14), human, on …; assay: cell-based or functional assay
[9] = molecular target: T2, TWEAKR (TNFRSF12A, FN14), human, on …; assay: cell-based or functional assay; remark: listed apart in the source
[10] = molecular target: T9, TPP-2305 (hTNFRSF12Aaa28-80) (Human, UniProt Q9NP84 28-80); assay: SPR (Biacore T100), IgG captured, TPP-2305 injected, 1:1 model
T9 construct: monomeric extracellular domain, bought; also called purified recombinant human TWEAKR protein; soluble monomeric TWEAKR
Procedure: Binding affinities of anti-TWEAKR antibodies were determined by surface plasmon resonance analysis on a Biacore T100 instrument (GE Healthcare Biacore, Inc.). Antibodies were immobilized onto a CM5 sensor chip through an indirect capturing reagent, anti-human IgG(Fc). […] Anti-TWEAKR antibodies were injected at a concentration of 10 μg/ml at 10 μl/min for 10 sec.
Sensorgrams were generated after in-line reference cell correction followed by buffer sample subtraction. The dissociation equilibrium constant (KD) was calculated based on the ratio of association (kₒₙ) and dissociation rated (koff) constants, obtained by fitting sensorgrams with a first order 1:1 binding model.

[11] = molecular target: T2, TWEAKR (TNFRSF12A, FN14), human, on …; assay: cell-based or functional assay; remark: listed apart in the source
[12] = molecular target: T2, TWEAKR (TNFRSF12A, FN14), human, on …; assay: FACS, A375 cells, 10 ug/ml
Procedure: as §1

[13] = molecular target: T2, TWEAKR (TNFRSF12A, FN14), human, on …; assay: FACS, 786-O cells, 10 ug/ml
Procedure: as §1

[14] = molecular target: T2, TWEAKR (TNFRSF12A, FN14), human, on …; assay: FACS, SKOV-3 cells, 10 ug/ml
Procedure: as §1

[15] = molecular target: T10, TPP-2614 (TweakR-ECD-34-68-hIgGFc-His-D47A) (human); assay: ELISA, IgG coated 1 ug/ml, TWEAKR variant 250 ng/ml, anti-HIS HRP (FIG. 6C)
T10 construct: also called D47A TWEAKR mutein
Procedure: Antibodies were coated (1 μg/ml), TWEAKR variant was added at 250 ng/ml, detection via anti-HIS HRP. […] Antibodies were coated (1 μg/ml), TWEAKR variant was added 250 ng/ml, detection via anti-HIS HRP.

[16] = molecular target: T2, TWEAKR (TNFRSF12A, FN14), human, on …; assay: FACS, NCI-H322 cells, 10 ug/ml
Procedure: as §1

[17] = molecular target: T2, TWEAKR (TNFRSF12A, FN14), human, on …; assay: FACS, HT29 cells, 10 ug/ml
Procedure: as §1

[18] = molecular target: TPP-1989 (hTNFRSF12Aaa28-80-H60K-hIgG1-Fc) (human); assay: ELISA, TWEAKR-Fc coated 62 ng/ml, biotin-IgG titrated; + means IC50 1 to 150 pM;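 further: biotinylated IgG binding to immobilized TWEAKR-Fc muteins, detected with Streptavidin-HRP and Amplex Red, IC50 derived from fitted dose-response curves of twofold serial dilutions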
Procedure: (§3) To collect dose-response data, the different TWEAKR-Fc muteins were coated with a low concentration (62 ng/ml) in a 384-well Maxisorb ELISA plate and a serial 2fold dilution of biotinylated IgG starting with a concentration of 100 nM was used as soluble binding partner. Detection was done with Streptavidin-HRP and Amplex Red.
(§4) The dose-response data were fitted and IC50s determined.

[19] = molecular target: TPP-1990 (hTNFRSF12Aaa28-80-L65Q-hIgG1-Fc) (human); assay: as above
Procedure: as §3, §4

[20] = molecular target: TPP-2683 (hTNFRSF12Aaa28-80-R56P-hIgG1-Fc) (human); assay: as above
Procedure: as §3, §4

[21] = molecular target: TPP-1986 (hTNFRSF12Aaa28-80-T33Q-hIgG1-Fc) (human); assay: as above
Procedure: as §3, §4

[22] = molecular target: TPP-1988 (hTNFRSF12Aaa28-80-M50A-hIgG1-Fc) (human); assay: as above
Procedure: as §3, §4

[23] = molecular target: TPP-1987 (hTNFRSF12Aaa28-80-S40R-hIgG1-Fc) (human); assay: as above
Procedure: as §3, §4

[24] = molecular target: T7, TPP-599 …; assay: as above
Procedure: as §3, §4

[25] = molecular target: T11, TPP-2203 (TWEAKR-ECD-34-68-hIgGFc-His) (human); assay: ELISA, TPP-2203 coated at 1 µg/ml, biotinylated IgG at 0.08 µg/ml (open bar) and 0.3 µg/ml (filled bar), Streptavidin-HRP, Amplex Red
T11 construct: dimeric; also called TWEAKR(34-68)-Fc fusion protein; truncated ectodomain 34-68
Procedure: (§5) Detection was done with Streptavidin-HRP and Amplex-Red substrate.
(§6) To analyze for binding, 1 μg/ml of the respective dimeric TWEAKR-Fc construct were coated and, 0.3 μg/ml and 0.08 μg/ml of biotinylated IgG were used as soluble binding partner. Detection was done with Streptavidin-HRP and Amplex-Red substrate.

[26] = molecular target: T12, TPP-2202 (TWEAKR-ECD-28-80-hIgGFc-His) (human); assay: ELISA, TPP-2202 coated at 1 µg/ml, biotinylated IgG at 0.08 µg/ml (open bar) and 0.3 µg/ml (filled bar), Streptavidin-HRP, Amplex Red
T12 construct: dimeric; also called TWEAKR-Fc fusion protein; full ectodomain 28-80
Procedure: as §5, §6

[27] = molecular target: T1, TPP-1984 (hTNFRSF12Aaa28-68-CT-His); assay: ELISA, TPP-1984 coated at 1 µg/ml, biotinylated IgG at 0.08 µg/ml (open bar) and 0.3 µg/ml (filled bar), Streptavidin-HRP, Amplex Red
Procedure: as §5, §6

Kd [2] | Kd [3] | Kd [4] | Kd [5] | Kd [6] | Kd [7] | IL-8 release from A375 cells at 100 ug/ml, % of the activation by 300 ng/ml TWEAK ligand [9] | Kd [10] | koff [10] | kon [10] | Fold induction of Caspase 3/7, HT-29 cells, 100 ug/ml [11] | % binding normalized by wt binding signal [15] | binding result [18] | binding result [19] | binding result [21] | binding result [22] | binding result [23] | binding result [24] | binding result [25] | binding result [26] | Binder | also measured
0.0204 µM | 0.0047 µM | 0.0227 µM | 0.0211 µM | 0.0154 µM | 0.025 µM | 134% | 0.0276 µM | 0.11 s⁻¹ | 4.2e+06 M⁻¹ s⁻¹ | 2.44 fold | < 5% | – | – | – | – | – | – | – | – | TPP-1538 (antibody, human IgG1, kappa, Human IgG1) heavy: not shown light: AQDIQMTQSPATLSASVGDRVTITCRASQSISSYLNWYQQKPGKAPKLLIYAASSLQSGVPSRFSGSGSGTDFTLTISSLQPEDFATYYCQQSYSSPGITFGPGTKVEIKRTVAAPSVFIFPPSDEQLKSGTASVVCLLNNFYPREAKVQWKVDNALQSGNSQESVTEQDSKDSTYSLSSTLTLSKADYEKHKLYACEVTHQGLSSPVTKSFNRGEC | GeoMean of Fluorescence minus GeoMean with the secondary antibody only [1]: 1190; % Inhibition of proliferation, 786-O cells, 96h, 100 ug/ml [8]: 75%; % Inhibition of proliferation, A253 cells, 72h, 100 ug/ml [8]: > 100%; % Inhibition of proliferation, HT-29 cells, 24h, 100 ug/ml [8]: 97%; % Inhibition of proliferation, WiDr cells, 96h, 100 ug/ml [8]: 55%; Fold induction of Caspase 3/7, 786-O cells, 100 ug/ml [11]: 1.81 fold; Fold induction of Caspase 3/7, NCI-H322 cells, 100 ug/ml [11]: 1.49 fold; Fold induction of Caspase 3/7, WiDr cells, 100 ug/ml [11]: 1.53 fold; GeoMean of Fluorescence minus GeoMean with the secondary antibody only [12]: 229; GeoMean of Fluorescence minus GeoMean with the secondary antibody only [13]: 17500; GeoMean of Fluorescence minus GeoMean with the secondary antibody only [14]: 1630; GeoMean of Fluorescence minus GeoMean with the secondary antibody only [16]: 98; GeoMean of Fluorescence minus GeoMean with the secondary antibody only [17]: 634
– | – | – | – | – | – | – | 0.0005 µM | 0.00122 s⁻¹ | 2.31e+06 M⁻¹ s⁻¹ | – | – | binds | binds | binds | binds | binds | binds | binds | binds | P3G5(TPP-2195) (antibody, mouse IgG2a, kappa, V domains shown, Murine IgG2a; variable domains from WO2009/140177 with constant region added) VH: QVQLQQSGPEVVRPGVSVKISCKGSGYTFTDYGIHWVKQSHAKSLEWIGVISTYNGYTNYNQKFKGKATMTVDKSSSTAYMELARLTSEDSAIYYCARAYYGNLYYAMDYWGQGTSVTVSS VL: DIVLTQSPASLAVSLGQRATISCRANKSVSTSSYSYMHWYQQKPGQPPKLLIKYASNLESGVPARFSGSGSGTDFILNIHPVEEEDAATYYCQHSRELPFTFGSGTKLEIKR | binding result [20]: binds
– | – | – | – | – | – | 93% | 0.0008 µM | 0.0324 s⁻¹ | 3.84e+07 M⁻¹ s⁻¹ | 1.81 fold | – | binds | binds | binds | binds | binds | binds | binds | binds | 136.1(TPP-2194) (antibody, mouse IgG2a, kappa, V domains shown, Murine IgG2a; variable domains from WO2009/020933 with constant region added) VH: EVKLEESGGGLVQPGGSMKLSCVASGFTFNNYWMSWVRQSPEKGLEWLAEIRLKSDNYATHYAESVKGKFTISRDDSKSRLYLQMNNLRAENTGIYYCTGGFADYFDYWGQGTTLTVSS VL: DIVLTQSPASLTVSLGQRATISCRASQSVSTSSYSYMQWYQQRPGQPPKLLIKYATNLDSGVPARFSGSGSGTDFTLNIHPVEEEDAATYYCQHSWEIPYTFGGGTKLEIKR | binding result [27]: binds
0.0212 µM | 0.0042 µM | 0.0224 µM | 0.0168 µM | 0.0103 µM | 0.0245 µM | – | 0.0289 µM | 0.086 s⁻¹ | 3e+06 M⁻¹ s⁻¹ | – | < 5% | – | – | – | – | – | – | – | – | TPP-2077 (antibody, human IgG1, kappa, Human IgG1) heavy: not shown light: DIQMTQSPATLSASVGDRVTITCRASQSISSYLNWYQQKPGKAPKLLIYAASSLQSGVPSRFSGSGSGTDFTLTISSLQPEDFATYYCQQSYSSPGITFGPGTKVEIKRTVAAPSVFIFPPSDEQLKSGTASVVCLLNNFYPREAKVQWKVDNALQSGNSQESVTEQDSKDSTYSLSSTLTLSKADYEKHKLYACEVTHQGLSSPVTKSFNRGEC | –
